US5691312A, “Pharmaceutical for subcutaneous or intramuscular administration containing polypeptides” (Behringwerke Aktiengesellschaft, priority 1989, dated 1997)

Assays:
[1] = additive for sc or im administration of proteins; WO 86/06962 and EP-A-0,292,908; cited from earlier work
[2] = Bioavailability and/or tolerability of polypeptides administered sc or im with added amino acid (general statements); assay type: in vivo, rats or rabbits; conditions: amino acid additives, sc or im administration
Protocol: (§1) Each ml of the thawed solutions from Example 1 was administered sc and im (femoral biceps) in animals (rats or rabbits). In the case of im administration, the total volume of 1 ml was divided between four types of injection.
(§2) After 0, 15, 30, 60, 120, 180, 240 and 340 minutes (r-t-PA mutant) or 0, 30, 60, 120, 180, 240, 300, 360, 420 and 450 minutes (r-t-PA, hirudin, urokinase AT III, F XIII, von Willebrand, EPO, PP4), blood samples (+ citrate) were taken. The blood samples were then immediately centrifuged and the resulting citrate plasma was frozen at -20° C. until the determination. The plasma concentration of the test substance was measured as follows:
(§3) The area under the curve (AUC) was then calculated. This value is an expression of the bioavailability and makes possible comparison between the different presentation forms.

[3] = Hemorrhages at the administration site, hirudin; assay type: in vivo, rat
Protocol: as §1
(§4) Number of animals with hemorrhages

[4] = Hemorrhages at the administration site, urokinase; assay type: in vivo, rabbit; conditions: for Number of animals with hemorrhages: 0.05 M tris, 5 mg/kg
Protocol: as §1, §4

[5] = Bioavailability of t-PA in the rat (plasma concentration by ELISA, AUC); assay type: in vivo; conditions: n=2, 3.3/8.2 mg/kg
Protocol: Each ml of the thawed solutions from Example 1 was administered sc and im (femoral biceps) in animals (rats or rabbits). In the case of im administration, the total volume of 1 ml was divided between four types of injection. […]
as §2
r-t-PA ELISA (Biopool, Sweden)
as §3
I. Bioavailability of t-PA in the rat

[6] = Death of animals after sc/im administration; assay type: in vivo; conditions: buffer 5 (0.05 M tris, 0.1 M NaCl pH 7.5, 0.1% Tween 80, 50 mg/ml hydroxylamine), rat, 3.3/8.2 mg/kg
Protocol: as §1

[7] = presentation form according to the invention versus customary presentation forms

NO [hydroxylamine]
tolerability [1]: limited tolerability

CN [methylamine]
tolerability [1]: limited tolerability

EPO: r-erythropoietin (EPO); 1 mg of EPO corresponds to 80,000 U of EPO antigen
influence on the bioavailability and/or improvement in the tolerability [2]: favorable influence

F XIII: F XIII (Fibrogammin) obtained from Behringwerke
influence on the bioavailability and/or improvement in the tolerability [2]: favorable influence

Hirudin
Number of animals with hemorrhages ([3]; 0.05 M tris, 0.1 M NaCl, im, 10 mg/kg): 3/3 | animal died as a result of the hemorrhages ([3]; 0.05 M tris, 0.1 M NaCl, im, 10 mg/kg, of 3 animals): 1 animal | Number of animals with hemorrhages ([3]; 0.05 M tris, 0.1 M NaCl, sc, 10 mg/kg): 2/3 | Number of animals with hemorrhages ([3]; 0.2 M arginine, 0.2 M lysine pH 7.5, im, 10 mg/kg): 0/3 | Number of animals with hemorrhages ([3]; 0.2 M arginine, 0.2 M lysine pH 7.5, sc, 10 mg/kg): 0/3 | hemorrhages at the administration site on sc and im administration [3, 7]: distinctly less | influence on the bioavailability and/or improvement in the tolerability [2]: favorable influence

PP4: PP4 (placenta protein 4) prepared by the process of EP 0,123,307
influence on the bioavailability and/or improvement in the tolerability [2]: favorable influence

Urokinase
Number of animals with hemorrhages ([4]; 0.1 M NaCl pH 7.5, im): 2/3 | Number of animals with hemorrhages ([4]; 0.1 M NaCl pH 7.5, sc): 2/3 | hemorrhages at the administration site on sc and im administration [4, 7]: distinctly less | influence on the bioavailability and/or improvement in the tolerability [2]: favorable influence

antithrombin III
influence on the bioavailability and/or improvement in the tolerability [2]: favorable influence

t-PA: r-t-PA (Actilyse) purchased from Boehringer Ingelheim; tissue plasminogen activator
AUC + Variation (%) ([5]; buffer 1 (0.05 M tris, 0.1 M NaCl), im): 358 ± 10% | AUC + Variation (%) ([5]; buffer 1 (0.05 M tris, 0.1 M NaCl), sc): 36 ± 13% | AUC + Variation (%) ([5]; buffer 2 (idem buffer 1, pH 4.5), im): 386 ± 2% | AUC + Variation (%) ([5]; buffer 2 (idem buffer 1, pH 4.5), sc): 53 ± 14% | AUC + Variation (%) ([5]; buffer 3 (0.2 M arginine, 0.2 M lysine pH 7.5), im): 756 ± 2% | AUC + Variation (%) ([5]; buffer 3 (0.2 M arginine, 0.2 M lysine pH 7.5), sc): 423 ± 3% | AUC + Variation (%) ([5]; buffer 4 (0.2 M arginine, 0.2 M lysine pH 4.5), im): 669 ± 17% | AUC + Variation (%) ([5]; buffer 4 (0.2 M arginine, 0.2 M lysine pH 4.5), sc): 382 ± 11% | AUC + Variation (%) ([5]; buffer 7 (0.05 M tris, 0.1 M NaCl pH 7.5, 0.1% Tween 80, 3% dimethyl sulfoxide), im): 184 ± 18% | AUC + Variation (%) ([5]; buffer 7 (0.05 M tris, 0.1 M NaCl pH 7.5, 0.1% Tween 80, 3% dimethyl sulfoxide), sc): 87 ± 12% | AUC + Variation (%) ([5]; buffer 8 (0.2 M arginine pH 7.5), im): 600 ± 4% | AUC + Variation (%) ([5]; buffer 8 (0.2 M arginine pH 7.5), sc): 320 ± 2% | AUC + Variation (%) ([5]; buffer 9 (0.2 M lysine pH 7.5), im): 610 ± 10% | AUC + Variation (%) ([5]; buffer 9 (0.2 M lysine pH 7.5), sc): 290 ± 11% | animals died ([6]; im): all animals died | animals died ([6]; sc): all animals died | influence on the bioavailability and/or improvement in the tolerability [2]: favorable influence

von Willebrand factor: prepared by the process of DE 3,904,354 (1 mg of vW corresponds to 100 U of vW antigen)
influence on the bioavailability and/or improvement in the tolerability [2]: favorable influence
